Paper PMC10167226, “Short hydrophobic loop motifs in BRICHOS domains determine chaperone activity against amorphous protein aggregation but not against amyloid formation” (Communications Biology, 2023)

T1: porcine heart citrate synthase (pig, UniProt P00889 28-464)
T1 construct: citrate synthase from porcine heart; Partly unfolded by incubation at 45 °C when it meets the chaperone; also called CS; source: bought: Sigma-Aldrich (porcine heart)
T1 sequence (looked up): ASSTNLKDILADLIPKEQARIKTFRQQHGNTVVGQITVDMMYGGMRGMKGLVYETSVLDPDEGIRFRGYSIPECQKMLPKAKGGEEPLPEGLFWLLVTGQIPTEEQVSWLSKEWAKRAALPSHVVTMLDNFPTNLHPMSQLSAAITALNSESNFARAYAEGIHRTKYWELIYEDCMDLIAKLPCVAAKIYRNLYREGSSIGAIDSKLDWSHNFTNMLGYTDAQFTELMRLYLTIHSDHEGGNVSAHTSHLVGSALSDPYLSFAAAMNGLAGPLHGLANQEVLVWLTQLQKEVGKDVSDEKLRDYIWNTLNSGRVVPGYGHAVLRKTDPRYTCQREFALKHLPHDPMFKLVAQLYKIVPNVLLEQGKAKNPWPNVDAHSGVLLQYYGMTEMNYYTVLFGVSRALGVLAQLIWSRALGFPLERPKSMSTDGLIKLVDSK


Assays:
[1] = target: the molecule itself; experiment: SEC; analytical SEC of isolated oligomers, Superdex 200 increase, 10 µmol/L protein in 20 mmol/L NaPi, 0.2 mmol/L EDTA, pH 8.0; number of subunits estimated from the peak maximum and its full width at half maximum
[2] = target: T1, porcine heart citrate synthase; experiment: SEC; 0.6 µmol/L CS incubated with 6 µmol/L rh Bri2 BRICHOS oligomers in 40 mmol/L HEPES/KOH pH 7.5 at 45 °C, then Superose 6 in 20 mmol/L NaPi pH 8.0, 0.2 mmol/L EDTA; fractions by SDS-PAGE (two bands) and native PAGE (one band); negative-stain EM of the complex; conditions: both partners purified

| binding result [2] | Binder | stoichiometry N [1] | binding result [1] |
| --- | --- | --- | --- |
| binds | recombinant human Bri2 BRICHOS domain, wild type (domain or fragment, UniProt Q9Y287 113-231, looked up, human Bri2, BRICHOS domain, residues 113 to 231; Also exists as monomers and dimers; the oligomer fraction was used with CS; also called wt Bri2 BRICHOS; rh Bri2 BRICHOS; source: recombinant, modified pET32 vector with His6-NT* tag; copies: about 18-30 (oligomers, estimated by SEC)) QTIEENIKIFEEEEVEFISVPVPEFADSDPANIVHDFNKKLTAYLDLNLDKCYVIPLNTSIVMPPRNLLELLINIKAGTYLPQSYLIHEHMVITDRIENIDHLGFFIYRLCHDKETYKL | 18 to 30 subunits | – |
| – | rh Bri2 BRICHOS T206W (domain or fragment, human, UniProt Q9Y287 113-231, looked up, also called T206W mutant; source: recombinant, modified pET32 vector with His6-NT* tag) QTIEENIKIFEEEEVEFISVPVPEFADSDPANIVHDFNKKLTAYLDLNLDKCYVIPLNTSIVMPPRNLLELLINIKAGTYLPQSYLIHEHMVIWDRIENIDHLGFFIYRLCHDKETYKL | – | binds |
